B1: p1E11 (nucleic acid, listed as Homo Sapiens)
DNA: TCTCTACAAATNNCTATAACAAAACTTTTTAGGAAAGTACCACAAATATGTTAAACAGAAGAAGCAAATCTCAAATAATGTGCAAAAGCTGTGAGTTTCTTCTTACATAAAACTGGTACCTAAGCAAGTGAGGGTTCATTTTATTTTTCACTCACCAATCCCCATATCATTATACAGTAACACCATACAGCCAAAACGGCCATGATATTCCTCCCTTCTCAGCCAAAATTGGGCAAGAGAGAATGACCCTTGTAGGGGAAAAGAAACCTCTACGATAAACTGAAATGCCACCATCAGGGTTTGTTGAAACTGTAGGNACAGGGTCTACGNCTCACTTAGCTGCTAATGAGTTTCTATGGTTCCAGNTGGGGTAGTTCAAAGTA
modifications: EST array clone; misc_feature 12, 13, 317, 330, 366: n = A,T,C or G
B2: p1K9 (nucleic acid, listed as Homo Sapiens)
DNA: AGTGTGAAATCTTCAGAGAAGAATTTCTCTTTAGTTCTTTGCAAGAAGGTAGAGATAAAGACACTTTTTCAAAAATGGCAATGGTATCAGAATTCCTCAAGCAGGCCTGGTTTATTGAAAATGAAGAGCAGGAATATGTTCAAACTGTGAAGTCATCCAAAGGTGGTCCCGGATCAGCGGTGAGCCCCTATCCTACCTTCAATCCATCCTCGGATGTCGCTGCCTTGCATAAGGCCATAATGGTTAAAGGTGTGGATGAAGCAACCATCATTGACATTCTAACTAAGCGAAACAATGCACAGCGTCAACAGATCAAAGCAGCATATCTCCAGGAAACAGGAAAGCCCCTGGATGAAACACTTAAGAAAGCCCTTACAGGTCACCTTGAGGAGGTTGTTTTAGCTCTGCTAAAAACTCCAGCGCAATTTGATGCTGATGAACTTCGTGCTGCCATGAAGGGCCTTGGAACTGATGAAGATACTCTAATTGAGATTTTGGCATCAAGAACTAACAAAGAAATCAGAGACATTAACAGGGTCTACAGAGAGGAACTGAAGAGAGATCTGGCCAAAGACATAACCTCAGACACATCTGGAGATTTTCGGAACGCTTTGCTTTCTCTTGCTAAGGGTGACCGATCTGAGGACTTTGGTGTGAATGAAGACTTGGCTGATTCAGATGCCAGGGCCTTGTATGAAGCAGGAGAAAGGAGAAAGGGGACAGACGTAAACGTGTTCAATACCATCCTTACCACCAGAAGCTATCCACAACTTCGCAGAGTGTTTCAGAAATACACCAAGTACAGTAAGCATGACATGAACAAAGTTCTGGACCTGGAGTTGAAAGGTGACATTGAGAAATGCCTCACAGCTATCGTGAAGTGCGCCACAAGCAAACCAGCTTTCTTTGCAGAGAAGCTTCATCAAGCCATGAAAGGTGTTGGAACTCGCCATAAGGCATTGATCAGGATTATGGTTTCCCGTTCTGAAATTGACATGAATGATATCAAAGCATTCTATCAGAAGATGTATGGTATCTCCCTTTGCCAAGCCATCCTGGATGAAACCAAAGGAGATTATGAGAAAATCCTGGTGGCTCTTTGTGGAGGAAACTAAACATTCCCTTGATGGTCTCAAGCTATGATCAGAAGACTTTAATTATATATTTTCATCCTATAAGCTTAAATAGGAAAGTTTCTTCAACAGGATTACAGTGTAGCTACCTACATGCTGAAAAATATAGCCTTTAAATCATTTTTATATTATAACTCTGTATAATAGAGATAAGTCCATTTTTTAAAAATGTTTTCCCCAAACCATAAAACCCTATACAAGTTGTTCTAGTAACAATACATGAGAAAGATGTCTATGTAGCTGAAAATAAAATGACGTCACAAGAC
B3: p2A24 (nucleic acid, listed as Homo Sapiens)
DNA: TTTTTTTTTATTTGGATTCTATTTATTTAAAATTAAATTCTTTGCAAAATTGAACTTCTCAACTAAAACGTGTCCATGTCAGAATTTTAACTGTTAGCAGGTAGTTTGTGGCAAAGATGGCTAAATAATGAAGCAAATTAGAATCTGTGTGTATACTAATGAGCTGCTTTTTTTCTGTTGAGACTATCATTATTTGTCTTATTACCCAAGAGGCAATTACCTGAATTTGGATGTCTGAATTATAACTTATGCAGGAATAGTTCTGTAAATACATTTAAATAAACTGTAAAGATATTTAATAAATATAGTATTTATACTAATCTGTGTGCTTCTTTTGGTTTGAATAGTAACTAAATGAGACACCAGCCCTTGACATTGAGTTTGTTGGTCACTATCAGGTCCTCATTTCCAAGCCTCCTAGTCATTCTAGCACTGATTATATGCTGCTACTTTAACTGGCTCCAGCTGCTTCACTACATCAGTTTAGCTTCCTCAGAAATTCATCAAAATGGACGGACAATTAAATGTAAATTATAGAACTTTTTCCCAGCTGAGGCTTTGCACCTTCCGTATAGTATAGAGGGAAGCTACAAAAA

What was measured:
[1] = test system: primary human cell cultures (11 cell types); assay: Custom gene array, 11 human cell types in normoxia or hypoxia for 6 hr and 18 hr; format: cell-based; conditions: for mRNA expression level, #1 HY 6 hr: cell type #1, hypoxia 6 hr; for mRNA expression level, #1 HY 18 hr: cell type #1, hypoxia 18 hr; for mRNA expression level, #1 NO: cell type #1, normoxia; for mRNA expression level, #2 HY 6 hr: cell type #2, hypoxia 6 hr; for mRNA expression level, #2 HY 18 hr: cell type #2, hypoxia 18 hr; for mRNA expression level, #2 NO: cell type #2, normoxia; for mRNA expression level, #3 HY 6 hr: cell type #3, hypoxia 6 hr; for mRNA expression level, #3 HY 18 hr: cell type #3, hypoxia 18 hr; for mRNA expression level, #3 NO: cell type #3, normoxia; for mRNA expression level, #4 HY 6 hr: cell type #4, hypoxia 6 hr; for mRNA expression level, #4 HY 18 hr: cell type #4, hypoxia 18 hr; for mRNA expression level, #4 NO: cell type #4, normoxia; for mRNA expression level, #5 HY 6 hr: cell type #5, hypoxia 6 hr; for mRNA expression level, #5 NO: cell type #5, normoxia; for mRNA expression level, #6 HY 6 hr: cell type #6, hypoxia 6 hr; for mRNA expression level, #6 NO: cell type #6, normoxia;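 on mRNA expression level, #1 HY 18 hr: cell type #1 is adipocyte from subcutaneous adult adipose tissue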;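 on mRNA expression level, #1 HY 6 hr: cell type #1 is adipocyte from subcutaneous adult adipose tissue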;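 on mRNA expression level, #1 NO: cell type #1 is adipocyte from subcutaneous adult adipose tissue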;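 on mRNA expression level, #2 HY 18 hr: cell type #2 is fetal cardiomyocyte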;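 on mRNA expression level, #2 HY 6 hr: cell type #2 is fetal cardiomyocyte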;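 on mRNA expression level, #2 NO: cell type #2 is fetal cardiomyocyte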;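 on mRNA expression level, #3 HY 6 hr: cell type #3 is human umbilical vein endothelial cells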;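 on mRNA expression level, #3 NO: cell type #3 is human umbilical vein endothelial cells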;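 on mRNA expression level, #4 HY 18 hr: cell type #4 is adult dermal fibroblast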;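 on mRNA expression level, #4 HY 6 hr: cell type #4 is adult dermal fibroblast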;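 on mRNA expression level, #4 NO: cell type #4 is adult dermal fibroblast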;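 on mRNA expression level, #5 HY 6 hr: cell type #5 is adult hepatocyte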;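 on mRNA expression level, #5 NO: cell type #5 is adult hepatocyte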;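 on mRNA expression level, #6 HY 6 hr: cell type #6 is blood-derived macrophage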;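 on mRNA expression level, #6 NO: cell type #6 is blood-derived macrophage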
Protocol: Equivalent cultures of non-immortalized, non-transformed primary human cells of 10 distinct types, were cultured in either normoxia or were exposed to hypoxia for 6 hr and 18 hr, and gene expression changes were determined. […] Moreover, unlike the vast majority of information in the public domain relating to genes responsive to hypoxia, all of these cells were human and were cultured without any modifications following isolation from the human donors.
A non-primary cell type (#9) was used to represent neurons, since primary human neurons are difficult to source. Therefore a total of 11 cell types are compared. It should be noted that RNA from hepatocytes at the […] timepoint of hypoxia was not available for this work.
Each RNA sample was hybridised to duplicate or triplicate arrays, to ensure reproducible data, and was analysed using GeneSpring software. Data from replicate arrays were merged during analysis to generate mean values. Data normalisation was achieved per-array using the aforementioned list of control genes, such that differences in RNA labelling or hybridization due to experimental variation were corrected by referencing each gene to the mean value of the reference genes on the same array. Also, for each gene, expression values were obtained which represent the value in each experimental condition (e.g. macrophages 6 hr hypoxia) as compared to the median of value of that gene throughout the full range of experimental conditions (i.e. from all cell types). […] This is common in microarray data analysis.

[2] = test system: human breast and ovary tumors; assay: Custom gene array, breast and ovary tumors versus normal adjacent tissue; conditions: Table 19
From the text: A study has been performed to examine the expression of these genes in a selection of breast and ovary tumors, comparing expression with normal adjacent tissue from the same patient. There is expected to be a large degree of variation between different patients, and the study here contains only 5 patients with a range of diagnoses.
Patients are designated as Letters:
E: person. Diagnosis: ovarian adenocarcinoma. Normal ovarian tissue derived from an age-matched separate individual.
: person. Diagnosis: poorly differentiated adenocarcinoma. Normal ovarian tissue derived from the same individual.
G: person. Diagnosis: moderately-differentiated adenocarcinoma. Normal ovarian tissue derived from the same individual.
H: person. Diagnosis: invasive ductal carcinoma. Normnal breast tissue derived from the same individual.
K: person. Diagnosis: invasive ductal carcinoma. Normal breast tissue derived from the same individual.
Data normalisation was done per-chip to correct for differences in labelling and hybridization efficiency. Per-gene normalisation was done such that the expression values of each gene are relative to the median value of that gene throughout the series of samples. By comparing the expression values under normal (nor) and tumor (turn) for a single patient, differences in expression between the normal and malignant tissue of that patient can be inferred.

Molecule	mRNA expression level, #1 HY 6 hr [1]	mRNA expression level, #1 HY 18 hr [1]	mRNA expression level, #1 NO [1]	mRNA expression level, #2 HY 6 hr [1]	mRNA expression level, #2 HY 18 hr [1]	mRNA expression level, #2 NO [1]	mRNA expression level, #3 HY 6 hr [1]	mRNA expression level, #3 HY 18 hr [1]	mRNA expression level, #3 NO [1]	mRNA expression level, #4 HY 6 hr [1]	mRNA expression level, #4 HY 18 hr [1]	mRNA expression level, #4 NO [1]	mRNA expression level, #5 HY 6 hr [1]	mRNA expression level, #5 NO [1]	mRNA expression level, #6 HY 6 hr [1]	mRNA expression level, #6 NO [1]	further results
B1	1.12	0.87	1.36	2.86	3.03	2.09	0.91	0.88	0.74	0.59	0.79	0.89	2.09	0.77	2.97	2.76	#6 HY 18 hr (mRNA expression level) ([1]; cell type #6, hypoxia 18 hr): 2.90; #7 HY 6 hr (mRNA expression level) ([1]; cell type #7, hypoxia 6 hr): 0.64; #7 HY 18 hr (mRNA expression level) ([1]; cell type #7, hypoxia 18 hr): 0.34; #7 NO (mRNA expression level) ([1]; cell type #7, normoxia): 0.63; #8 HY 6 hr (mRNA expression level) ([1]; cell type #8, hypoxia 6 hr): 1.47; #8 HY 18 hr (mRNA expression level) ([1]; cell type #8, hypoxia 18 hr): 1.35; #8 NO (mRNA expression level) ([1]; cell type #8, normoxia): 0.64; #9 HY 6 hr (mRNA expression level) ([1]; cell type #9, hypoxia 6 hr): 1.16; #9 HY 18 hr (mRNA expression level) ([1]; cell type #9, hypoxia 18 hr): 0.64; #9 NO (mRNA expression level) ([1]; cell type #9, normoxia): 1.18; #10 HY 6 hr (mRNA expression level) ([1]; cell type #10, hypoxia 6 hr): 0.79; #10 HY 18 hr (mRNA expression level) ([1]; cell type #10, hypoxia 18 hr): 0.88; #10 NO (mRNA expression level) ([1]; cell type #10, normoxia): 0.74; #11 HY 6 hr (mRNA expression level) ([1]; cell type #11, hypoxia 6 hr): 2.49; #11 HY 18 hr (mRNA expression level) ([1]; cell type #11, hypoxia 18 hr): 1.93; #11 NO (mRNA expression level) ([1]; cell type #11, normoxia): 1.79; HIGHEST FOLD CHANGE IN HYPOXIA (hr hypoxia + cell type) ([1]; hypoxia/normoxia induction ratio, 6 hr hepatocyte): 2.73 (6 hr hepatocyte) fold
B2																	gene expression level on custom gene array, Breast nor H ([2]; breast, normal adjacent tissue, patient H): 1.20; gene expression level on custom gene array, Breast nor K ([2]; breast, normal adjacent tissue, patient K): 0.23; gene expression level on custom gene array, Breast tum H ([2]; breast, tumor tissue, patient H): 0.54; gene expression level on custom gene array, Breast tum K ([2]; breast, tumor tissue, patient K): 0.12; gene expression level on custom gene array, Ovary nor E ([2]; ovary, normal adjacent tissue, patient E): 0.46; gene expression level on custom gene array, Ovary nor F ([2]; ovary, normal adjacent tissue, patient F): 1.33; gene expression level on custom gene array, Ovary nor G ([2]; ovary, normal adjacent tissue, patient G): 1.07; gene expression level on custom gene array, Ovary tum E ([2]; ovary, tumor tissue, patient E): 4.09; gene expression level on custom gene array, Ovary tum F ([2]; ovary, tumor tissue, patient F): 1.17; gene expression level on custom gene array, Ovary tum G ([2]; ovary, tumor tissue, patient G): 0.31
B3	0.65	0.67	1.21	2.21	2.48	2.42	3.05	2.59	2.35	0.76	0.68	1.10	0.91	0.68	0.22	0.28	HIGHEST FOLD CHANGE IN HYPOXIA (hr hypoxia + cell type) ([1]; DOWN, 18 hr adipocyte): 1.85 DOWN (18 hr adipocyte) ^ fold

— patent US20030203372A1, “Analysis method” (priority 2000, published 2003)
